We go through five molecules from article PMC7042354, “Distinct surfaces on Cdc5/PLK Polo-box domain orchestrate combinatorial substrate recognition during cell division” (Scientific Reports, 2020).

Usually Kd stands for the equilibrium constant for the complex coming apart.

The test system of one test is cdc5-S630Q mutant. The test is described as follows: Proliferation assay (spot dilution) of cdc5 mutants with DNA damaging agents. Particulars: 0.4 μM 4-NQO on YPAD, 23 °C, n = 5. The test is classed as cell-based, Saccharomyces cerevisiae. The protocol: All yeast strains used in this study were constructed in the W303 background and their relevant genotypes are summarized in (Supplemental Table 2). Standard conditions and procedures were used for yeast growth, sporulation and tetrad dissection. Growth of temperature-sensitive (ts) mutants in liquid media was performed at 23 °C (permissive temperature) and 37 °C (non-permissive temperature).
The temperature-sensitive (ts) growth behavior of cdc5 mutants was monitored on solid YPAD medium at the following temperatures: 23, 30 and 37.5 °C. Their sensitivity to DNA replication inhibitors and DNA damaging agents was assessed at 23 °C on YPAD medium containing either 100 mM hydroxyurea (HU) or 0.4 μM 4-nitroquinoline N-oxide (4-NQO). In all cases, cultures of yeast strains were diluted fivefold and subsequently spotted on solid medium, using a starting OD600 of 0.2 in the first dilution. Yeast were allowed to grow for approximately 36–72 hours at the indicated temperatures prior to scanning plates. The experiment was repeated 5 times (n = 5).

For test [1], the target named is T1, polo-box domain of Cdc5 (residues 418–705) (Saccharomyces cerevisiae, UniProt P32562 418-705).
T1 construct: Cdc5, Polo-like kinase of Saccharomyces cerevisiae, residues 418-705 (polo-box domain with the preceding extension), subcloned in pPROEX HTa; Residues 418-459 disordered in the crystal; loop 594-601 possibly cleaved during crystallization of the apo form; also called Cdc5^PBD; PBD of Cdc5
T1 sequence (looked up): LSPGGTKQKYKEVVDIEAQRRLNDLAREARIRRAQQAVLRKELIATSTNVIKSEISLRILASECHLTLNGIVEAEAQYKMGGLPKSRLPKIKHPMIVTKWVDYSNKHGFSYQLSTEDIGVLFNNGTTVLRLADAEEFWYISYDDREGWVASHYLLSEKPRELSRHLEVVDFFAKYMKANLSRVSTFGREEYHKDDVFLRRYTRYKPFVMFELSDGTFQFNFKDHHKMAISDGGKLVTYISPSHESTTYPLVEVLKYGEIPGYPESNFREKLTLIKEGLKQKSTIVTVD
The experiment in a line: ITC; Nano ITC; 30 µM protein in the chamber cell, 280 µM peptide in the syringe; storage buffer (50 mM TRIS-HCl pH 7.0, 200 mM NaCl, 1.4 mM 2-mercaptoethanol, 5% glycerol) with 20 mM EDTA pH 8.0. Particulars: both partners purified. For orientation: In ITC the heat of successive injections is recorded.

The target in test [2] is T2, polo-box domain of Cdc5 pre-incubated with the Dbf4 peptide (Cdc5-Dbf4) (Saccharomyces cerevisiae | S. cerevisiae, UniProt P32562 418-705).
T2 construct: Cdc5, Polo-like kinase of Saccharomyces cerevisiae, residues 418-705; Dbf4 of budding yeast, residues 73-96
The test is described as follows: saturation-transfer difference (STD) NMR and 1D 1H NMR chemical shifts; ternary sample: 20 µM Cdc5 with both Dbf4 and Spc72^P peptides (500 µM); 20 mM sodium phosphate pH 7.0, 200 mM NaCl, 20 mM EDTA, >99% D2O; 298 K. To be noted: both partners purified.

Test [3] concerns the target T1, polo-box domain of Cdc5 (residues …). The experiment in a line: crystal structure; Cdc5 polo-box domain (5 mg/mL) mixed with Spc72^P at 1:15 protein:peptide, overnight at 4 °C; crystals in 100 mM Bis-TRIS pH 6.5, 25% PEG3350, 200 mM MgCl2, 100 mM CsCl. Particulars: both partners purified.
For test [4] the target is unchanged. The test is described as follows: crystal structure; Cdc5 polo-box domain (5 mg/mL) mixed with Dbf4 peptide at 1:10 protein:peptide, overnight at 4 °C; crystals in 20% PEG 3350, 200 mM sodium potassium tartrate, 10 mM trimethylamine hydrochloride. To be noted: both partners purified.

Square brackets hold non-standard residues; d marks the D form. Ends that are not written are not given here. pS = N[C@@H](COP(=O)(O)O)C(=O)O

Consider `O=[N+]([O-])c1cc[n+]([O-])c2ccccc12` [4-NQO, 4-nitroquinoline 1-oxide], for which the “growth of cdc5-S630Q mutant in presence of agent” value in the test on cdc5-S630Q mutant (36–72 h) is reported as “very little or no growth”. Further, the “hypersensitivity of cdc5-S630Q mutant compared with smc5-6 cells” value in the test on cdc5-S630Q mutant is “comparable to that of cells defective in the Smc5-6 complex”.

B1: Spc72^P phosphorylated peptide (printed as 222-237) (peptide)
peptide: DKEEFLSLAQS[pS]PAGSQ
notes: Spc72, spindle pole body protein of budding yeast; Peptide used for ITC and NMR; also called Scp72^P; Spc72^P peptide; source: synthetic peptide, bought: GenScript
As for B1, the binding result in test [1] and in test [2] was “binds” each time.

B2: Spc72^P phosphorylated peptide (227-237) derived from the spindle-pole body protein Spc72 (peptide)
peptide: SLAQS[pS]PAGSQ
notes: Spc72, spindle pole body protein of budding yeast, residues 227-237; Peptide used for crystallization; also called Spc72^P phosphopeptide; source: synthetic peptide, bought: GenScript
On to B2, for which the binding result in test [3] is recorded as “binds”.

B3: Dbf4-derived peptide (73-96) (peptide)
peptide: EKKRARIERARSIEGAVQVSKGTG
notes: Dbf4, regulatory subunit of the Dbf4-dependent kinase of budding yeast, residues 73-96; Peptide used for ITC and NMR; also called Dbf4 peptide; source: synthetic peptide, bought: GenScript
In the case of B3, the Kd in test [1] is approximately 500 nM.

B4: Dbf4-derived peptide (76-96) from the polo-interacting region of Dbf4 (peptide)
peptide: RARIERARSIEGAVQVSKGTG
notes: Dbf4, regulatory subunit of the Dbf4-dependent kinase of budding yeast, residues 76-96; Peptide used for crystallization; also called Dbf4 peptide; source: synthetic peptide, bought: GenScript
As to B4, in test [4], the binding result was “binds”.
